# Measured values from US20180185467A1 (Harvard, published 2018).
# B1: endogenous 14-3-3ε (other)
# chain: MDDREDLVYQAKLAEQAERYDEMVESMKKVAGMDVELTVEERNLLSVAYKNVIGARRASWRIISSIEQKEENKGGEDKLKMIREYRQMVETELKLICCDILDVLDKHLIPAANTGESKVFYYKMKGDYHRYLAEFATGNDRKEAAENSLVAYKAASDIAMTELPPTHPIRLGLALNFSVFYYEILNSPDRACRLAKAAFDDAIAELDTLSEESYKDSTLIMQLLRDNLTLWTSDMQGDGEEQNKEALQDVEDENQ
# B2: bacterially-purified recombinant human 14-3-3ε protein (NP_006752.1) (other)
# chain: B1 chain
# notes: also called recombinant (r) 14-3-3ε; r14-3-3ε
# Experiments:
# endogenous 14-3-3ε = endogenous 14-3-3ε (UniProt P62258)
# [1] = target: T1, GST-NS3 of HCV (strain Con1) (Hepatitis C virus, strain Con1, UniProt Q9WMX2 1027-1657); assay: GST pull-down in 293T cells, immunoblot with anti-14-3-3ε
# T1 construct: domain: NS3; also called HCV NS3; NS3 of Hepatitis C virus
# T1 sequence (Q9WMX2 1027-1657): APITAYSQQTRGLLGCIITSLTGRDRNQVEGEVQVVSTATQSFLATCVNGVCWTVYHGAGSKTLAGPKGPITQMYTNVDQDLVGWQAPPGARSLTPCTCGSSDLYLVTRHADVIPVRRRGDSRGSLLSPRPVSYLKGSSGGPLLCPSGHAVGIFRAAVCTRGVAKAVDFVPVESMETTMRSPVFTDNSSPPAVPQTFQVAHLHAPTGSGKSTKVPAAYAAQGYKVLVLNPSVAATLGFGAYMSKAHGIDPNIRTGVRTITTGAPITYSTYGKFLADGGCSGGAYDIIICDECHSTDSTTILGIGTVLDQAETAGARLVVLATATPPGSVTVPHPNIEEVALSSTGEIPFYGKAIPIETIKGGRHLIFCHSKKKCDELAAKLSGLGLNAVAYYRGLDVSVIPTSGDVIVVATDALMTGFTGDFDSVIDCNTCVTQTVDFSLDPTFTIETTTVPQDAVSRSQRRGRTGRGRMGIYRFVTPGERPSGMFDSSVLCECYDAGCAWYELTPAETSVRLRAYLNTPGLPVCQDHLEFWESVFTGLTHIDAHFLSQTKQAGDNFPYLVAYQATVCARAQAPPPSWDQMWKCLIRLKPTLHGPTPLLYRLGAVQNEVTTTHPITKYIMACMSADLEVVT
# endogenous RIG-I = target: T2, endogenous RIG-I (human, UniProt O95786 1-925); assay: Co-IP with anti-RIG-I from SeV-infected cells, immunoblot with anti-14-3-3ε
# T2 construct: also called retinoic acid-inducible gene-I
# T2 sequence: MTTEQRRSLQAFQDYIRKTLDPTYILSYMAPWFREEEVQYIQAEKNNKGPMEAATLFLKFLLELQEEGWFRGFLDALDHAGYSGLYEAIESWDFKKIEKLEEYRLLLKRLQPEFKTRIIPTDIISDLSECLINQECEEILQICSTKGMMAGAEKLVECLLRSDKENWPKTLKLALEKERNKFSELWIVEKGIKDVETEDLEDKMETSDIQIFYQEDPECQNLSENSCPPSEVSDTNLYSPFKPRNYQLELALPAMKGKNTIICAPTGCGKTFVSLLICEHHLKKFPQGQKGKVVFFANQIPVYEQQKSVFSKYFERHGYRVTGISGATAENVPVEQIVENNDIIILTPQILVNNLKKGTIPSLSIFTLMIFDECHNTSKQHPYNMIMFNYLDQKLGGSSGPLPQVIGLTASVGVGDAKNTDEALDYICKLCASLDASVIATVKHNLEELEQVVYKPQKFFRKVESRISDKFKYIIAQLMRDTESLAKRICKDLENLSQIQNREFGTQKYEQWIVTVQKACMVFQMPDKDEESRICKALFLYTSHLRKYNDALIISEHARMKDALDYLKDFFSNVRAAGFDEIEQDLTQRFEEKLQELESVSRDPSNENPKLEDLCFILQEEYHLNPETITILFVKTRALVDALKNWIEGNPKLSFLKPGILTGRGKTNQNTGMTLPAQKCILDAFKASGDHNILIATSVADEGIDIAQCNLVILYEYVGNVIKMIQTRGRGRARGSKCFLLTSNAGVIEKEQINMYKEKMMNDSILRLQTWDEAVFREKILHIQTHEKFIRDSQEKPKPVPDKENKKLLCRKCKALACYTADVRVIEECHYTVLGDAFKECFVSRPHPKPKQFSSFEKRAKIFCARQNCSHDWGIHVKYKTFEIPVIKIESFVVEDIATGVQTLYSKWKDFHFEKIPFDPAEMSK
# [2] = target: T3, FLAG-NS5-MTase (NS5 methyltransferase domain, aa 1-319) (dengue virus serotype 2, strain NGC, UniProt P14340 2492-2810); assay: FLAG affinity purification from HEK293T cells and mass spectrometry
# T3 construct: domain: NS5 methyltransferase (aa 1-319); also called pEF-BOS-FLAG-NS5-MTase; not shown: FLAG tag
# RIG-I-FLAG = target: T4, RIG-I-FLAG (UniProt O95786 1-925); assay: in vitro binding assay on anti-FLAG beads, immunoblot
# T4 construct: also called purified RIG-I-FLAG
# T4 sequence: T2 sequence
molecule,measurement,setting,value
NS3 of DV2 NGC in infected Huh7 cells,"translocation of RIG-I to the MAVS-containing mitochondrial fraction (fractionation, immunoblot)",endogenous 14-3-3ε,RIG-I failed to translocate to the MAVS-containing mitochondrial fraction during DV infection
B1,binding result,[1],no binding
same,binding result,endogenous RIG-I,binds
same,binding result,[2],no binding
B2,binding result,RIG-I-FLAG,binds
